Drawing on US20240189408A1, “COMPOSITIONS AND METHODS FOR REDUCING METHANE EMISSIONS IN RUMINANT POPULATIONS” (Arkea Bio Corp., priority 2022, published 2024), this text covers Encapsulation efficiency, PDI and Z-avg. for seven molecules.

Data set [1] in a line: LNP encapsulation efficiency, RiboGreen assay. It counts as physicochemical. To be noted: mRNA LNPs of Table 18. On the procedure:
(§1) To prepare lipid nanoparticles (LNPs), the mRNA stocks were thawed on ice. Nucleic acid concentrations were validated by absorbance at 260 nm using a NanoDrop. The mRNAs were then diluted to a final concentration of 0.35 mg/mL mRNA in Precision Nanosystem's dilution buffer. 10 mL of the dilute mRNAs were loaded into separate Luer lock syringes and all bubbles were removed by gentle tapping. A NanoAssemblr Ignite NxGen Cartridge was loaded into the cartridge slot of the Ignite instrument (FIG. 8A, 801) and one mRNA syringe was attached to the aqueous inlet of the cartridge. 3.3 mL of Genvoy-ILM reagent was loaded into a separate Luer lock syringes and all bubbles were removed by gentle tapping. The Genvoy-ILM syringe was then attached to the organic inlet of the cartridge. LNPs were then generated and collected into a 15 mL conical tube. The process was repeated for the remaining two mRNAs and for a buffer only LNP control (empty). Immediately after LNPs were generated, the samples were loaded into 10K dialysis cartridges, submerged into 1×DPBS (Ca^2+ and Mg^2+-free) to reduce the ethanol concentration to <0.5%. After dialysis the LNPs were recovered from the dialysis cartridges and sterile filtered at 0.2 um. Size and polydispersity (FIG. 8A, 802) were measured using a Malvern Panalytical DLS by diluting 40 uL of LNPs into 360 uL of 1×DPBS. […] Encapsulation efficiency was measured using a RiboGreen assay following Precision Nanosystems recommended protocol using a BioTek Synergy H1 Plate Reader. The resultant encapsulation efficiencies are shown in Table 14, with an average of ˜85%.
(§2) To prepare lipid nanoparticles (LNPs), the mRNA stocks were thawed on ice. Nucleic acid concentrations were validated by absorbance at 260 nm using a NanoDrop. The mRNAs were then diluted to a final concentration of 0.35 mg/mL mRNA in Precision Nanosystem's dilution buffer. 10 mL of the dilute mRNAs were loaded into separate Luer lock syringes and all bubbles were removed by gentle tapping. A NanoAssemblr Ignite NxGen Cartridge was loaded into the cartridge slot of the Ignite instrument and one mRNA syringe was attached to the aqueous inlet of the cartridge. 3.3 mL of Genvoy-ILM reagent was loaded into a separate Luer lock syringes and all bubbles were removed by gentle tapping. The Genvoy-LM syringe was then attached to the organic inlet of the cartridge. LNPs were then generated and collected into a 15 mL conical tube. The process was repeated for the remaining mRNAs and for a buffer only LNP control (empty). Immediately after LNPs were generated, the samples were loaded into 10K dialysis cartridges, submerged into Ix DPBS (Ca^2+ and Mg^2+-free) to reduce the ethanol concentration to <0.5%. After dialysis the LNPs were recovered from the dialysis cartridges and sterile filtered at 0.2 um. Size and polydispersity (FIG. 12 and FIG. 13) were measured using a Malvern Panalytical DLS by diluting 40 uL of LNPs into 360 uL of 1×DPBS. […] Encapsulation efficiency was measured using a RiboGreen assay following Precision Nanosystems recommended protocol using a BioTek Synergy H1 Plate Reader. The resultant encapsulation efficiencies are shown in Table 18, with an average of ˜60%.
(§3) To prepare lipid nanoparticles (LNPs), the mRNA stocks are thawed on ice. Nucleic acid concentrations are validated by absorbance at 260 nm using a NanoDrop. The mRNAs are then diluted to a final concentration of 0.35 mg/mL mRNA in Precision Nanosystem's dilution buffer. 10 mL of the dilute mRNAs are loaded into separate Luer lock syringes and all bubbles are removed by gentle tapping. A NanoAssemblr Ignite NxGen Cartridge is loaded into the cartridge slot of the Ignite instrument and one mRNA syringe is attached to the aqueous inlet of the cartridge. 3.3 mL of Genvoy-ILM reagent is loaded into a separate Luer lock syringes and all bubbles are removed by gentle tapping. The Genvoy-ILM syringe is then attached to the organic inlet of the cartridge. […]

The nature of data set [2]: LNP size and polydispersity by DLS (Malvern Panalytical). To be noted: mRNA LNPs of Table 18; for PDI: LNP polydispersity; for Z-avg.: LNP size. In kind it is physicochemical. On the procedure:
as §1, §2, §3

B1: ARK001: mRNA: SP + WP_004031278.1 (Methanobacterium formicicum) + TM/C; SEQ ID NO: 16676 (nucleic acid)
chain: ATGTTCGTGTTCCTCGTGCTCCTGCCCCTCGTCTCCAGCCAGTGCGTGTACCTCATGACACTGAGCCTGCCAGGGTTCGCACATCCCTTCGCACTCCCCCCCTGGTACATCTGGCTGGGCTTCATCGCAGGACTGATCGCCATCGTCATGGTCACCATAATGCTCTGTTGCATGACCTCCTGCTGTAGCTGCCTGAAAGGCTGTTGCAGCTGCGGGAGCTGCTGCAAATTCGACGAAGACGATAGCGAACCTGTGCTCAAAGGGGTGAAGTTGCATTACACATAGTGA
modifications: listed as DNA
For the molecule B1, the Encapsulation efficiency in data set [1] is listed as 51%. Moreover, in data set [2], the PDI is 0.086 and the Z-avg. amounted to 78.82 nm·days.

B2: ARK013: mRNA: SP + mru0143 + STOP; SEQ ID NO: 16687 (nucleic acid)
chain: ATGTTCGTGTTCCTCGTGCTCCTGCCCCTCGTCTCCAGCCAGTGCGTGTACCTCATGACACTCCCCCTGGACGGACTCGGGCACCCCTTCCCCCTGCCATGA
modifications: listed as DNA, chemistry not fully specified
Turning to B2, the Encapsulation efficiency in data set [1] was 60%. Further, in data set [2], the PDI worked out at 0.1841 and the Z-avg. stood at 78.82 nm·days.

B3: ARK003: mRNA: SP + WP_019264904.1 (Methanobrevibacter smithii) + TM/C; SEQ ID NO: 16678 (nucleic acid)
chain: ATGTTCGTGTTCCTCGTGCTCCTGCCCCTCGTCTCCAGCCAGTGCGTGTACCTCATGACCATACCACTGAACGGCACCCCACTCCACGCCTTCCCACTGCCACCCTGGTACATCTGGCTGGGCTTCATCGCAGGACTGATCGCCATCGTCATGGTCACCATAATGCTCTGTTGCATGACCTCCTGCTGTAGCTGCCTGAAAGGCTGTTGCAGCTGCGGGAGCTGCTGCAAATTCGACGAAGACGATAGCGAACCTGTGCTCAAAGGGGTGAAGTTGCATTACACATAGTGA
modifications: listed as DNA
As to B3, in data set [1], the Encapsulation efficiency came out at 40%. Moreover, in data set [2], the PDI is 0.118 and the Z-avg. was determined as 78.82 nm·days.

B4: ARK004: mRNA: SP + WP_016359091.1 (Methanobrevibacter sp. AbM4) + TM/C; SEQ ID NO: 16679 (nucleic acid)
chain: ATGTTCGTGTTCCTCGTGCTCCTGCCCCTCGTCTCCAGCCAGTGCGTGTACCTGATGATAATCCCAATCAACGGGAGTGCACTCCACATCTTCCCCCTCCCGCCCTGGTACATCTGGCTGGGCTTCATCGCAGGACTGATCGCCATCGTCATGGTCACCATAATGCTCTGTTGCATGACCTCCTGCTGTAGCTGCCTGAAAGGCTGTTGCAGCTGCGGGAGCTGCTGCAAATTCGACGAAGACGATAGCGAACCTGTGCTCAAAGGGGTGAAGTTGCATTACACATAGTGA
modifications: listed as DNA
Take B4: the Encapsulation efficiency in data set [1] was 51%. For the same molecule, in data set [2], the PDI was 0.108 and the Z-avg. turned out to be 78.82 nm·days.

B5: ARK005: mRNA: SP + WP_011033493.1 (Methanosarcina mazei) + TM/C; SEQ ID NO: 16680 (nucleic acid)
chain: ATGTTCGTGTTCCTCGTGCTCCTGCCCCTCGTCTCCAGCCAGTGCGTGTACCTCATGACGGTGGTGCTCGGACACCCATTCCCGCTGACACCCTGGTACATCTGGCTGGGCTTCATCGCAGGACTGATCGCCATCGTCATGGTCACCATAATGCTCTGTTGCATGACCTCCTGCTGTAGCTGCCTGAAAGGCTGTTGCAGCTGCGGGAGCTGCTGCAAATTCGACGAAGACGATAGCGAACCTGTGCTCAAAGGGGTGAAGTTGCATTACACATAGTGA
modifications: listed as DNA
As to B5, the Encapsulation efficiency in data set [1] stood at 56%. For the same molecule, in data set [2], the PDI stood at 0.064 and the Z-avg. is 78.82 nm·days.

B6: ARK012: mRNA: SP + WP_012956721.1 + STOP; SEQ ID NO: 16686 (nucleic acid)
chain: ATGTTCGTGTTCCTCGTGCTCCTGCCCCTCGTCTCCAGCCAGTGCGTGGGGTCCATAGGGGCTGCTTCTATGGAGTTCTGTTTTGATGTTTTCAAGGAACTGAAGGTTCACCATGCTAACGAGAACATCTTTTACTGTCCAATAGCCATCATGAGTGCGCTTGCTATGGTTTATTTGGGTGCAAAAGATTCTACTCGCACTCAGATTAATAAGGTCGTTAGATTCGACAAGCTTCCAGGGTTTGGAGACAGTATTGAGGCCCAATGTGGAACGTCAGTCAACGTCCATTCTTCTCTGCGGGACATTCTCAACCAAATAACGAAGCCAAACGACGTGTATTCCTTCTCACTCGCGTCACGGCTGTATGCTGAAGAAAGGTATCCTATCTTGCCAGAATATCTCCAGTGCGTCAAGGAGTTGTATCGAGGCGGACTGGAACCGATCAACTTTCAGACTGCAGCCGACCAGGCCCGCGAACTGATCAACAGCTGGGTCGAGTCTCAGACCAATGGGATCATACGCAATGTGTTGCAACCGAGTAGTGTCGACTCTCAGACGGCTATGGTCTTGGTGAACGCTATAGTCTTCAAAGGTCTGTGGGAGAAGACCTTCAAGGATGAAGACACACAAGCGATGCCATTCAGAGTCACCGAACAAGAAAGCAAACCCGTCCAAATGATGTACCAAATTGGGCTTTTTCGGGTGGCCTCTATGGCCTCTGAGAAAATGAAAATATTGGAACTGCCCTTCGCCAGCGGCACAATGAGTATGTTGGTCCTTCTTCCAGATGAAGTCTCAGGTCTCGAACAGCTTGAGTCTATCATTAACTTTGAGAAACTCACTGAATGGACTTCTTCCAATGTGATGGAAGAACGAAAAATCAAAGTCTACCTGCCCCGAATGAAGATGGAAGAGAAATATAATTTGACATCAGTTCTGATGGCCATGGGAATCACAGACGTGTTTTCATCCTCTGCGAATCTGTCTGGCATATCTTCCGCAGAATCTCTCAAGATCAGTCAAGCCGTCCACGCGGCCCATGCTGAGATAAATGAGGCGGGCAGAGAGGTGGTGGGGTCCGCCGAAGCTGGAGTCGACGCAGCTTCTGTCAGTGAAGAATTTAGGGCCGATCATCCTTTCCTGTTCTGCATAAAGCACATAGCTACGAACGCTGTGCTTTTCTTTGGCAGATGCGTTTCTCCACCCTGGTACATCTGGCTGGGCTTCATCGCAGGACTGATCGCCATCGTCATGGTCACCATAATGCTCTGTTGCATGACCTCCTGCTGTAGCTGCCTGAAAGGCTGTTGCAGCTGCGGGAGCTGCTGCAAATTCGACGAAGACGATAGCGAACCTGTGCTCAAAGGGGTGAAGTTGCATTACACATAGTGA
modifications: listed as DNA
For B6, the Encapsulation efficiency in data set [1] was 49%. Further, in data set [2], the PDI is reported as 0.100 and the Z-avg. amounted to 78.82 nm·days.

B7: ARK002: mRNA: SP + WP_012956721.1 (Methanobrevibacter ruminantium) + TM/C; SEQ ID NO: 16677 (nucleic acid)
chain: ATGTTCGTGTTCCTCGTGCTCCTGCCCCTCGTCTCCAGCCAGTGCGTGTACCTCATGACACTCCCCCTGGACGGACTCGGGCACCCCTTCCCCCTGCCACCCTGGTACATCTGGCTGGGCTTCATCGCAGGACTGATCGCCATCGTCATGGTCACCATAATGCTCTGTTGCATGACCTCCTGCTGTAGCTGCCTGAAAGGCTGTTGCAGCTGCGGGAGCTGCTGCAAATTCGACGAAGACGATAGCGAACCTGTGCTCAAAGGGGTGAAGTTGCATTACACATAGTGA
modifications: listed as DNA
As to B7, the Encapsulation efficiency in data set [1] turned out to be 51%. Further, in data set [2], the PDI was 0.108 and the Z-avg. was found to be 78.82 nm·days.
